Data on 34 substances can be found in publication PMC3794980.

pIC50: −log10 of the molar value.

The term pIC50 denotes −log10 of the IC50, conventionally taken in molar units.

What all share (assay): radioligand binding
The target of assay [1] is HLA-DR DRB1*0101 (human (endogenous in EBV transformed cell lines)).
Assay [2] deals with HLA-DR DRB1*0401 (human (endogenous in EBV transformed cell lines)).
Assay [3] addresses HLA-DR DRB1*0404 (human (endogenous in EBV transformed cell lines)).
In assay [4] the target is HLA-DR DRB1*0405 (human (endogenous in EBV transformed cell lines)).
In assay [5] the target is HLA-DR DRB1*0701 (human (endogenous in EBV transformed cell lines)).
The target in assay [6] is HLA-DR DRB1*0901 (human (endogenous in EBV transformed cell lines)).
The target in assay [7] is HLA-DR DRB1*1501 (human (endogenous in EBV transformed cell lines)).
The target in assay [8] is HLA-DR DRB3*0101 (human (endogenous in EBV transformed cell lines)).
Assay [9] deals with HLA-DR DRB4*0101 (human (endogenous in EBV transformed cell lines)).
In assay [10] the target is HLA-DR DRB1*1302 (human (endogenous in EBV transformed cell lines)).
In assay [11] the target is HLA-DR DRB1*0802 (human (endogenous in EBV transformed cell lines)).
The target in assay [12] is HLA-DR DRB1*1101 (human (endogenous in EBV transformed cell lines)).
Assay [13] deals with HLA-DR DRB5*0101 (human (endogenous in EBV transformed cell lines)).
For assay [14], the target named is HLA-DR DRB1*0301 (human (endogenous in EBV transformed cell lines)).

On to DENV3 NS1 169-183 (peptide), for which the pIC50 in assay [1] is 6.65; in assay [2], 6.32; in [3], 6.34; in [4] it was 6.56; in assay [5], 6.87; in [6], 6.19. Moreover, the pIC50 in [7] was 6.36; in assay [8], 6.13; in assay [9], 6.06.

With DENV3 Envelope 156-170 (peptide), the pIC50 in assay [1] was 6.33; in assay [2], 8.12; in assay [3], 6.35; in assay [4], 7.34; in assay [9] it was 6.15.

Turning to DENV3 NS5 193-209 (peptide), the pIC50 in [1] is 7.06; in assay [5] it was 6.84; in [10], 7.82; in assay [7], 6.70.

DENV3 NS3 237-251 (peptide): the pIC50 in [2] was 7.88; in [3], 6.51; in [4], 6.82; in assay [11] it was 7.45; in assay [6], 6.03; in [12], 6.09. For the same substance, the pIC50 was 6.20 in assay [7] and 7.89 in assay [13].

Turning to DENV3 NS5 765-779 (peptide), the pIC50 was 7.39 in assay [1]; 8.11 in assay [11]; 7.21 in [6]; 8.31 in assay [10]; 6.93 in assay [7]; 6.90 in [8]. The substance also gave a pIC50 in [13] of 6.14.

As to DENV3 NS3 309-323 (peptide), the pIC50 in [1] was 7.57; in assay [2] it was 8.63; in assay [3] it was 6.46; in assay [4] it was 7.49; in [5], 7.32; in assay [11], 7.51. The pIC50 was 6.89 in assay [6], 6.44 in [7] and 8.04 in assay [9].

In the case of DENV3 Envelope 41-55 (peptide), the pIC50 in assay [1] is 8.63; in assay [5], 8.50; in assay [11], 8.29; in assay [6], 6.88; in assay [10], 7.57; in assay [9] it was 8.19. The pIC50 in assay [13] was 6.16.

Take DENV3 NS5 747-763 (peptide): the pIC50 in [1] was 7.27; in assay [3], 6.95; in [4], 7.41; in [6], 6.41; in assay [7] it was 6.78.

DENV3 NS5 576-592 (peptide): the pIC50 in assay [10] was 6.53; in assay [9], 6.97.

For DENV3 NS5 489-505 (peptide), the pIC50 in assay [1] is 6.64; in assay [14], 6.93; in [4], 6.63; in assay [8], 6.41; in assay [13] it was 6.03.

In the case of DENV3 NS1 225-239 (peptide), the pIC50 in assay [2] was 6.49; in assay [10] it was 7.23.

As to DENV3 Envelope 161-175 (peptide), the pIC50 in assay [2] is 6.94; in [4], 6.16; in assay [5], 6.29; in assay [11], 7.20; in [10], 7.17.

For the substance DENV3 NS5 714-729 (peptide), the pIC50 was 7.43 in [14]; 6.16 in assay [6]; 6.17 in assay [12]; 7.97 in assay [10]; 7.18 in [7]; 6.61 in assay [13].

As to DENV3 Envelope 346-360 (peptide), the pIC50 is 8.35 in assay [1]; 6.46 in assay [2]; 7.17 in assay [5]; 6.54 in assay [11]; 7.84 in assay [10]; 6.48 in assay [7].

For DENV3 NS5 558-574 (peptide), the pIC50 was 6.23 in [14]; 6.18 in assay [4]; 6.87 in assay [5]; 6.76 in assay [12]; 6.40 in [7]; 6.41 in assay [13].

Turning to DENV3 NS1 85-99 (peptide), the pIC50 in [1] is 7.25; in assay [14] it was 6.27; in assay [2] it was 7.06; in assay [5], 7.15; in [6] it was 7.38; in [12] it was 6.09. Also, the pIC50 is 6.32 in assay [10] and 7.67 in assay [7].

In the case of DENV3 NS1 117-131 (peptide), the pIC50 in assay [2] is 7.55; in assay [3], 6.16; in assay [4] it was 6.55; in assay [11], 7.25; in assay [8] it was 6.27.

As to DENV3 NS5 477-493 (peptide), the pIC50 in [1] is 7.93; in [2], 7.17; in [3], 6.91; in [4] it was 7.26; in [5], 7.58; in [6], 7.10. Moreover, the figures for the negative-log IC50 (pIC50) in assay [8], in assay [9] and in [13] were 7.59, 6.56 and 7.25, respectively.

In the case of DENV3 NS5 564-580 (peptide), the pIC50 in [1] is 7.73; in assay [14], 6.65; in assay [2], 6.41; in assay [6], 7.00; in assay [12] it was 6.46; in assay [10], 7.95. The pIC50 in [7] is 7.55; in [8], 6.24; in [13], 6.52.

Turning to DENV3 NS1 173-187 (peptide), the pIC50 is 7.59 in assay [1]; 6.10 in [14]; 6.30 in assay [2]; 6.22 in assay [6]; 6.19 in assay [12]; 7.24 in assay [8]. Moreover, the pIC50 in [13] was 6.12.

As to DENV3 NS5 769-785 (peptide), the pIC50 is 7.55 in assay [1]; 6.39 in [14]; 8.44 in assay [2]; 7.03 in [3]; 7.80 in [4]; 7.56 in assay [11]. Besides, the pIC50 in assay [6] is 7.21; in assay [12], 7.10; in assay [10], 8.35; in assay [9] it was 6.67; in [13], 6.95.

As to DENV3 NS5 866-882 (peptide), the pIC50 in [14] is 6.75; in assay [11], 8.15; in assay [6], 7.18; in [12], 6.38; in assay [10], 6.27; in [7], 6.83.

As for DENV3 NS5 233-248 (peptide), the pIC50 in assay [1] is 6.97; in assay [2], 7.24; in [4], 6.16; in [11], 6.80; in [12] it was 7.80; in [10], 7.47. Also, the pIC50 in [7] is 6.51; in assay [9], 6.21; in assay [13], 6.38.

In the case of DENV3 NS3 61-75 (peptide), the pIC50 is 7.07 in assay [10] and 6.84 in [13].

As for DENV3 Envelope 126-140 (peptide), the pIC50 in [1] was 6.01; in [4], 7.05; in assay [11] it was 7.43; in assay [7] it was 7.67; in assay [9], 7.23.

As to DENV3 NS3 433-447 (peptide), the pIC50 in assay [14] is 7.16; in assay [10] it was 7.63; in [8], 6.87.

Take DENV3 NS3 353-367 (peptide): the figures for the pIC50 in assay [3], in [4] and in [5] were 6.07, 6.05 and 7.06, respectively.

As for DENV3 NS3 297-311 (peptide), the pIC50 in assay [2] is 7.79; in assay [3] it was 6.90; in assay [4], 7.05; in [5], 7.11; in [12] it was 7.45.

Turning to DENV3 NS5 719-735 (peptide), the pIC50 is 6.67 in assay [1]; 7.36 in assay [14]; 6.72 in assay [3]; 7.65 in assay [4]; 6.64 in assay [10].

Turning to DENV3 NS3 185-199 (peptide), the pIC50 in [14] is 6.06; in assay [2], 6.77; in assay [4], 6.01; in [11], 7.68; in assay [12], 7.14; in [9] it was 8.12.

As to DENV3 NS3 277-291 (peptide), the pIC50 was 6.42 in [1]; 7.43 in assay [14]; 6.85 in assay [2]; 6.40 in assay [4]; 6.40 in assay [11]; 7.17 in assay [10]. In [8], this substance had a pIC50 of 8.35.

As to DENV3 NS5 523-539 (peptide), the pIC50 in assay [1] was 6.13; in assay [14] it was 8.03; in assay [2], 8.14; in assay [12], 6.77; in [8] it was 7.35; in [9], 6.35.

Turning to DENV3 Envelope 396-410 (peptide), the pIC50 is 8.31 in assay [1]; 6.37 in assay [14]; 6.53 in assay [5]; 6.97 in assay [11]; 7.40 in assay [6]; 7.41 in [12]. In addition, the figures for the negative-log IC50 (pIC50) in [7], in assay [8] and in assay [13] were 6.59, 6.37 and 7.57, respectively.

With DENV3 NS3 101-115 (peptide), the negative-log IC50 (pIC50) was 6.70 in assay [1], 6.14 in assay [4] and 6.35 in [7].
